Data taken from PMC3319252.

Experiments:
[1] = molecular target: transmembrane (TM) domain of the human nicotinic acetylcholine receptor α4 subunit (human); assay: SEC-MALS
[2] = molecular target: transmembrane (TM) domain of the human nicotinic acetylcholine receptor β2 subunit (human); assay: SEC-MALS

| stoichiometry N [1] | stoichiometry N [2] | Substance |
| --- | --- | --- |
| 5 | – | transmembrane (TM) domain of the human nicotinic acetylcholine receptor α4 subunit (domain or fragment) |
| – | 5 | transmembrane (TM) domain of the human nicotinic acetylcholine receptor β2 subunit (domain or fragment) |
